Measured values published in the supplement of paper PMC7877785.
± gives the uncertainty stated by the source.

Experiment: self-splicing fitness, log relative to wild type (ln ratio); higher = more splicing; Tetrahymena group I intron in knt gene, E. coli kanamycin selection, DiMSum; sequences stand for … in CUCUCU…GGAGGGAAAAGUUAUCAGGCAUGCACCUGGUAGCUAGUCUUUAAACCAAUAGAUUGCAUCGGUUUAAAAGGCAAGACCGUCAAAUUGCGGGAAAGGGGUCAACAGCCGUUCAGUACCAAGUCUCAGGGGAAACUUUGAGAUGGCCUUGCAAAGGGUAUGGUAAUAAGCUGACGGACAUGGUCCUAACCACGCAGCCAAGUCCUAAGUCAACAGAUCUUCUGUUGAUAUGGAUGCAGUUCACAGACUAAAUGUCGGUCGGGGAAGAUGUAUUCUUCUCAUAAGAUAUAGUCGGACCUCUCCUUAAUGGGAGCUAGCGGAUGAAGUGAUGCAACACUGGAGCCGCUGGGAACUAAUUUGUAUGCGAAAGUAUAUUGAUUAGUUUUGGAGUACUCGUGGUCG
Method in brief: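 Fitness was computed with DiMSum as the error-weighted combination of replicate fold changes, kanamycin versus none, each normalised to wild type. The library randomised all eight intron nucleotides of the P1ex region, with the intron placed in the knt kanamycin-resistance gene on pET-22b(+) in E. coli BL21(DE3). Six replicate transformations were grown overnight at 37°C or 30°C on LB agar with or without 25 μg/mL kanamycin, plus 100 μg/mL carbenicillin, 50 μM IPTG and 0.2% rhamnose. Pooled colonies were amplicon-sequenced on an Illumina HiSeq 2500.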

CGGCAGCAAUAUUACGGAAC
self-splicing fitness (ln) (30 °C): -2.88 ± 0.16 | self-splicing fitness (ln) (37 °C): -3.76 ± 0.33

UGCCAGCAAUAUUACGCGCG
self-splicing fitness (ln) (30 °C): -0.853 ± 0.083 | self-splicing fitness (ln) (37 °C): -0.528 ± 0.1

AUGUAGCAAUAUUACGCGAG
self-splicing fitness (ln) (30 °C): -1.71 ± 0.13 | self-splicing fitness (ln) (37 °C): -0.706 ± 0.13

GGUAAGCAAUAUUACGUUUG
self-splicing fitness (ln) (37 °C): -2.56 ± 0.21

AUGUAGCAAUAUUACGUCAU
self-splicing fitness (ln) (30 °C): -1.81 ± 0.059 | self-splicing fitness (ln) (37 °C): -0.896 ± 0.069

UAACAGCAAUAUUACGUAGG
self-splicing fitness (ln) (30 °C): -2.08 ± 0.065 | self-splicing fitness (ln) (37 °C): -1.65 ± 0.079

UCAGAGCAAUAUUACGAAAG
self-splicing fitness (ln) (30 °C): -2.84 ± 0.36 | self-splicing fitness (ln) (37 °C): -1.6 ± 0.38

UUCGAGCAAUAUUACGAGGA
self-splicing fitness (ln) (30 °C): -1.87 ± 0.27 | self-splicing fitness (ln) (37 °C): -2.76 ± 0.44

CGUAAGCAAUAUUACGGGCA
self-splicing fitness (ln) (30 °C): -3.24 ± 0.23 | self-splicing fitness (ln) (37 °C): -1.09 ± 0.14

UCGCAGCAAUAUUACGGAAG
self-splicing fitness (ln) (30 °C): -2.74 ± 0.25 | self-splicing fitness (ln) (37 °C): -1.74 ± 0.22

AUAGAGCAAUAUUACGUACA
self-splicing fitness (ln) (30 °C): -1.62 ± 0.098 | self-splicing fitness (ln) (37 °C): -0.944 ± 0.12

CUAAAGCAAUAUUACGUGUA
self-splicing fitness (ln) (30 °C): -3.82 ± 0.19 | self-splicing fitness (ln) (37 °C): -3.2 ± 0.23

UCUGAGCAAUAUUACGUGUG
self-splicing fitness (ln) (30 °C): -2.15 ± 0.12 | self-splicing fitness (ln) (37 °C): -1.51 ± 0.12

CUCGAGCAAUAUUACGUCAG
self-splicing fitness (ln) (37 °C): -0.401 ± 0.39

UCAUAGCAAUAUUACGAAGU
self-splicing fitness (ln) (30 °C): -3.43 ± 0.16 | self-splicing fitness (ln) (37 °C): -3.51 ± 0.39

GGAGAGCAAUAUUACGUUGU
self-splicing fitness (ln) (30 °C): -4.01 ± 0.19 | self-splicing fitness (ln) (37 °C): -3.77 ± 0.24

UUUUAGCAAUAUUACGCGUU
self-splicing fitness (ln) (30 °C): -2.55 ± 0.18 | self-splicing fitness (ln) (37 °C): -2.61 ± 0.19

ACCCAGCAAUAUUACGAUGU
self-splicing fitness (ln) (30 °C): -0.18 ± 0.041 | self-splicing fitness (ln) (37 °C): -0.0583 ± 0.052

UGAAAGCAAUAUUACGGGAG
self-splicing fitness (ln) (30 °C): -1.49 ± 0.12 | self-splicing fitness (ln) (37 °C): -0.515 ± 0.12

CAUAAGCAAUAUUACGUUCC
self-splicing fitness (ln) (30 °C): -3.94 ± 0.32

UGACAGCAAUAUUACGGGGC
self-splicing fitness (ln) (30 °C): -2.96 ± 0.13 | self-splicing fitness (ln) (37 °C): -2.56 ± 0.12

UGAUAGCAAUAUUACGCAAG
self-splicing fitness (ln) (37 °C): -2.3 ± 0.26

UUAAAGCAAUAUUACGCGUC
self-splicing fitness (ln) (30 °C): -1.08 ± 0.11 | self-splicing fitness (ln) (37 °C): -1.66 ± 0.16

GGUCAGCAAUAUUACGCCAA
self-splicing fitness (ln) (30 °C): -1.17 ± 0.25 | self-splicing fitness (ln) (37 °C): -2.06 ± 0.22

GUAAAGCAAUAUUACGACUA
self-splicing fitness (ln) (30 °C): -0.649 ± 0.097 | self-splicing fitness (ln) (37 °C): -0.957 ± 0.11

UCUGAGCAAUAUUACGGGUC
self-splicing fitness (ln) (30 °C): -4.32 ± 0.39 | self-splicing fitness (ln) (37 °C): -2.38 ± 0.3

GGCCAGCAAUAUUACGUGCU
self-splicing fitness (ln) (30 °C): -3.59 ± 0.15 | self-splicing fitness (ln) (37 °C): -2.52 ± 0.2

CGAAAGCAAUAUUACGUACG
self-splicing fitness (ln) (30 °C): -1.5 ± 0.076 | self-splicing fitness (ln) (37 °C): -1.27 ± 0.11

CCUUAGCAAUAUUACGAGUU
self-splicing fitness (ln) (30 °C): -3.96 ± 0.27 | self-splicing fitness (ln) (37 °C): -2.56 ± 0.21

UAGCAGCAAUAUUACGACAG
self-splicing fitness (ln) (30 °C): -0.896 ± 0.1 | self-splicing fitness (ln) (37 °C): -0.68 ± 0.13

UUUCAGCAAUAUUACGGAGU
self-splicing fitness (ln) (30 °C): -2.8 ± 0.28 | self-splicing fitness (ln) (37 °C): -1.64 ± 0.38

GCAAAGCAAUAUUACGCUUC
self-splicing fitness (ln) (30 °C): -4.15 ± 0.33 | self-splicing fitness (ln) (37 °C): -2.39 ± 0.33

CGGGAGCAAUAUUACGUCUA
self-splicing fitness (ln) (30 °C): -1.89 ± 0.21 | self-splicing fitness (ln) (37 °C): -1.82 ± 0.21

GUGAAGCAAUAUUACGGGCU
self-splicing fitness (ln) (30 °C): -2.08 ± 0.13 | self-splicing fitness (ln) (37 °C): -0.869 ± 0.15

UUCGAGCAAUAUUACGUUAC
self-splicing fitness (ln) (30 °C): -3.5 ± 0.48

AGGAAGCAAUAUUACGUACC
self-splicing fitness (ln) (30 °C): -0.353 ± 0.12 | self-splicing fitness (ln) (37 °C): -0.748 ± 0.16

GUAUAGCAAUAUUACGGGGC
self-splicing fitness (ln) (37 °C): -1.61 ± 0.37

UGUAAGCAAUAUUACGUUAG
self-splicing fitness (ln) (30 °C): -1.56 ± 0.14 | self-splicing fitness (ln) (37 °C): -0.556 ± 0.17

UCGAAGCAAUAUUACGCAAC
self-splicing fitness (ln) (30 °C): -2.37 ± 0.42

GGGUAGCAAUAUUACGAUAA
self-splicing fitness (ln) (30 °C): -1.67 ± 0.13 | self-splicing fitness (ln) (37 °C): 0.147 ± 0.16
